Test results reported in publication doi:10.1101/2024.12.23.630085, “Accurate sequence-to-affinity models for SH2 domains from multi-round peptide binding assays coupled with free-energy regression” (bioRxiv, 2025).
Non-standard residues stand in square brackets, D forms with d. *: point of attachment. FITC = O=C1OC2(c3ccc(O)cc3Oc3cc(O)ccc32)c2ccc(NC(=S)*)cc21; pY = N[C@@H](Cc1ccc(OP(=O)(O)O)cc1)C(=O)O; Ahx = NCCCCCC(=O)O

Tests used:
Conditions in all cases: both partners purified
Fyn SH2 domain (142-248) = biological target: T1, Fyn SH2 domain (142-248) (human, UniProt P06241 142-248, biotin (on the AviTag)); test: fluorescence polarisation; competition mode; unlabelled phosphopeptide against 0.4 nM FITC-Ahx-GDG-pY-EEISPLLL-NH2 and 4.125 nM Fyn SH2, as printed (Tables S3 and S5)
T1 construct: SH2 domain of human Fyn kinase, residues 142-248; source: E. coli C43(DE3) with BirA helper plasmid, purified (HisTrap, anion exchange, Ulp1 cleavage, SEC); not shown: His6-SUMO, N-terminal, cleaved; AviTag, C-terminal, kept

Lyn SH2 domain (121-228) = biological target: T2, Lyn SH2 domain (121-228) (human, UniProt P07948 121-228, biotin (on the AviTag)); test: fluorescence polarisation; competition mode; unlabelled phosphopeptide against 30 nM FITC-Ahx-GDG-pY-EEISPLLL-NH2 and 106.5 nM Lyn SH2 (Table S3)
T2 construct: source: E. coli C43(DE3) with BirA helper plasmid, purified (HisTrap, anion exchange, Ulp1 cleavage, SEC); not shown: His6-SUMO, N-terminal, cleaved; AviTag, C-terminal, kept

Grb2 SH2 domain = biological target: T3, Grb2 SH2 domain (UniProt P62993 60-152, biotin (biotinylated SH2 domain of the selection)); test: fluorescence polarisation; competition mode; unlabelled phosphopeptide against 30 nM FITC-Ahx-FDDPS(pY)VNVQN and 123 nM Grb2 SH2 (Table S3)
T3 construct: SH2 domain of the adapter protein Grb2; source: purified
T3 sequence (P62993 60-152): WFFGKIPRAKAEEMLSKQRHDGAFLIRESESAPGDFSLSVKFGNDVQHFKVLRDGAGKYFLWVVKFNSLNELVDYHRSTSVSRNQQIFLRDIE

T2 sequence (P07948 121-228): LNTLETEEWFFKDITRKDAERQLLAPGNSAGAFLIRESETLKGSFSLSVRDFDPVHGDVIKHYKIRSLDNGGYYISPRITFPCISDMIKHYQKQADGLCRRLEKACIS
T1 sequence (P06241 142-248): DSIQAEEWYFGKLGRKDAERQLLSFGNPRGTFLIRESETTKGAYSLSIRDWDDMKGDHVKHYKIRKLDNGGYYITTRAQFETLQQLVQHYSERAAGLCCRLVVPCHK

Binder | Kd (Fyn SH2 domain (142-248)) | Kd (Grb2 SH2 domain) | further results
Ac-QSDQRR[pY]SLIDPG-NH2 (SMILES CC[C@H](C)[C@H](NC(=O)[C@H](CC(C)C)NC(=O)[C@H](CO)NC(=O)[C@H](Cc1ccc(OP(=O)(O)O)cc1)NC(=O)[C@H](CCCNC(=N)N)NC(=O)[C@H](CCCNC(=N)N)NC(=O)[C@H](CCC(N)=O)NC(=O)[C@H](CC(=O)O)NC(=O)[C@H](CO)NC(=O)[C@H](CCC(N)=O)NC(C)=O)C(=O)N[C@@H](CC(=O)O)C(=O)N1CCC[C@H]1C(=O)NCC(N)=O, flank added to the 11-residue stretch (surmised: last residue of the library's constant GQSGQ); CLIP2, human, around pY972, natural variant R977P; flank added to the 11-residue stretch (surmised: first residue of the library's constant GGQSG); source: synthetic peptide (SynPeptide, China)) [CLIP2 pY972 R977P] | 27 nM |  | 
Ac-QVEGIG[pY]DFIPTG-NH2 (SMILES CC[C@H](C)[C@H](NC(=O)CNC(=O)[C@H](CCC(=O)O)NC(=O)[C@@H](NC(=O)[C@H](CCC(N)=O)NC(C)=O)C(C)C)C(=O)NCC(=O)N[C@@H](Cc1ccc(OP(=O)(O)O)cc1)C(=O)N[C@@H](CC(=O)O)C(=O)N[C@@H](Cc1ccccc1)C(=O)N[C@H](C(=O)N1CCC[C@H]1C(=O)N[C@H](C(=O)NCC(N)=O)[C@@H](C)O)[C@@H](C)CC, flank added to the 11-residue stretch (surmised: last residue of the library's constant GQSGQ); CBS, human, around pY308; flank added to the 11-residue stretch (surmised: first residue of the library's constant GGQSG); source: synthetic peptide (SynPeptide, China)) [CBS pY308] | 126 nM |  | 
Ac-QVEGIS[pY]DFIPTG-NH2 (SMILES CC[C@H](C)[C@H](NC(=O)CNC(=O)[C@H](CCC(=O)O)NC(=O)[C@@H](NC(=O)[C@H](CCC(N)=O)NC(C)=O)C(C)C)C(=O)N[C@@H](CO)C(=O)N[C@@H](Cc1ccc(OP(=O)(O)O)cc1)C(=O)N[C@@H](CC(=O)O)C(=O)N[C@@H](Cc1ccccc1)C(=O)N[C@H](C(=O)N1CCC[C@H]1C(=O)N[C@H](C(=O)NCC(N)=O)[C@@H](C)O)[C@@H](C)CC, flank added to the 11-residue stretch (surmised: last residue of the library's constant GQSGQ); CBS, human, around pY308, natural variant G307S; flank added to the 11-residue stretch (surmised: first residue of the library's constant GGQSG); source: synthetic peptide (SynPeptide, China)) [CBS pY308 G307S] | 185 nM |  | 
Ac-QLHVHP[pY]EKVEDG-NH2 (SMILES CC(=O)N[C@@H](CCC(N)=O)C(=O)N[C@@H](CC(C)C)C(=O)N[C@@H](Cc1c[nH]cn1)C(=O)N[C@H](C(=O)N[C@@H](Cc1c[nH]cn1)C(=O)N1CCC[C@H]1C(=O)N[C@@H](Cc1ccc(OP(=O)(O)O)cc1)C(=O)N[C@@H](CCC(=O)O)C(=O)N[C@@H](CCCCN)C(=O)N[C@H](C(=O)N[C@@H](CCC(=O)O)C(=O)N[C@@H](CC(=O)O)C(=O)NCC(N)=O)C(C)C)C(C)C, source: synthetic peptide (SynPeptide, China)) [Syn-F-1 (synthetic)] | 30.2 nM |  | 
Ac-QMEKHV[pY]ESVTQG-NH2 (SMILES CSCC[C@H](NC(=O)[C@H](CCC(N)=O)NC(C)=O)C(=O)N[C@@H](CCC(=O)O)C(=O)N[C@@H](CCCCN)C(=O)N[C@@H](Cc1c[nH]cn1)C(=O)N[C@H](C(=O)N[C@@H](Cc1ccc(OP(=O)(O)O)cc1)C(=O)N[C@@H](CCC(=O)O)C(=O)N[C@@H](CO)C(=O)N[C@H](C(=O)N[C@H](C(=O)N[C@@H](CCC(N)=O)C(=O)NCC(N)=O)[C@@H](C)O)C(C)C)C(C)C, source: synthetic peptide (SynPeptide, China)) [Syn-F-2 (synthetic)] | 18.3 nM |  | 
{FITC-Ahx}-GDG[pY]EEISPLLL-NH2 (SMILES CC[C@H](C)[C@H](NC(=O)[C@H](CCC(=O)O)NC(=O)[C@H](CCC(=O)O)NC(=O)[C@H](Cc1ccc(OP(=O)(O)O)cc1)NC(=O)CNC(=O)[C@H](CC(=O)O)NC(=O)CNC(=O)CCCCCNC(=S)Nc1ccc2c(c1)C(=O)OC21c2ccc(O)cc2Oc2cc(O)ccc21)C(=O)N[C@@H](CO)C(=O)N1CCC[C@H]1C(=O)N[C@@H](CC(C)C)C(=O)N[C@@H](CC(C)C)C(=O)N[C@@H](CC(C)C)C(N)=O, fluorescent probe, c-Src SH2 consensus peptide; also called c-Src SH2 consensus; source: synthetic peptide (SynPeptide, China)) [FITC-Ahx-GDG-pY-EEISPLLL-NH2] |  |  | binding result (Lyn SH2 domain (121-228)): binds; binding result (Fyn SH2 domain (142-248)): binds
Ac-QHNIHS[pY]INIPPG-NH2 (source: synthetic peptide (SynPeptide, China)) [Syn-G2-2 (synthetic)] |  | 3.99 nM | 
Ac-QLGHQR[pY]HNITPG-NH2 (source: synthetic peptide (SynPeptide, China)) [Syn-G2-5 (synthetic)] |  | 487 nM | 
Ac-QHRLNN[pY]ENNRLG-NH2 (source: synthetic peptide (SynPeptide, China)) [Syn-G2-6 (synthetic)] |  | 2250 nM | 
Ac-QIEVGT[pY]QNPHNG-NH2 (source: synthetic peptide (SynPeptide, China)) [Syn-G2-7 (synthetic)] |  | 3240 nM | 
Ac-QEGGVD[pY]KNIHLG-NH2 (SMILES CC[C@H](C)[C@H](NC(=O)[C@H](CC(N)=O)NC(=O)[C@H](CCCCN)NC(=O)[C@H](Cc1ccc(OP(=O)(O)O)cc1)NC(=O)[C@H](CC(=O)O)NC(=O)[C@@H](NC(=O)CNC(=O)CNC(=O)[C@H](CCC(=O)O)NC(=O)[C@H](CCC(N)=O)NC(C)=O)C(C)C)C(=O)N[C@@H](Cc1c[nH]cn1)C(=O)N[C@@H](CC(C)C)C(=O)NCC(N)=O, flank added to the 11-residue stretch (surmised: last residue of the library's constant GQSGQ); CSF1R, human, around pY699; flank added to the 11-residue stretch (surmised: first residue of the library's constant GGQSG); also called CSFR pY699; source: synthetic peptide (SynPeptide, China)) [CSF1R pY699] |  |  | Kd (Lyn SH2 domain (121-228)): 22800 nM
Ac-QGRREE[pY]DVLDKG-NH2 (SMILES CC(=O)N[C@@H](CCC(N)=O)C(=O)NCC(=O)N[C@@H](CCCNC(=N)N)C(=O)N[C@@H](CCCNC(=N)N)C(=O)N[C@@H](CCC(=O)O)C(=O)N[C@@H](CCC(=O)O)C(=O)N[C@@H](Cc1ccc(OP(=O)(O)O)cc1)C(=O)N[C@@H](CC(=O)O)C(=O)N[C@H](C(=O)N[C@@H](CC(C)C)C(=O)N[C@@H](CC(=O)O)C(=O)N[C@@H](CCCCN)C(=O)NCC(N)=O)C(C)C, flank added to the 11-residue stretch (surmised: last residue of the library's constant GQSGQ); CD3 zeta chain, human, around pY83; flank added to the 11-residue stretch (surmised: first residue of the library's constant GGQSG); also called CD3ζ pY83; source: synthetic peptide (SynPeptide, China)) [CD3Z pY83] |  |  | Kd (Lyn SH2 domain (121-228)): 2950 nM
